# Test results reported in patent publication US9611295B2, “Treatment of IL-17 mediated disease by blocking SEFIR-SEFIR interactions” (THE CLEVELAND CLINIC FOUNDATION, priority 2011, dated 2017).
# Target: T1, Act1-IL-17RA interaction (Homo sapiens, UniProt Q96F46)
# T1 construct: expressed in transfected cells; host or cells: HeLa
# T1 sequence (Q96F46 33-866): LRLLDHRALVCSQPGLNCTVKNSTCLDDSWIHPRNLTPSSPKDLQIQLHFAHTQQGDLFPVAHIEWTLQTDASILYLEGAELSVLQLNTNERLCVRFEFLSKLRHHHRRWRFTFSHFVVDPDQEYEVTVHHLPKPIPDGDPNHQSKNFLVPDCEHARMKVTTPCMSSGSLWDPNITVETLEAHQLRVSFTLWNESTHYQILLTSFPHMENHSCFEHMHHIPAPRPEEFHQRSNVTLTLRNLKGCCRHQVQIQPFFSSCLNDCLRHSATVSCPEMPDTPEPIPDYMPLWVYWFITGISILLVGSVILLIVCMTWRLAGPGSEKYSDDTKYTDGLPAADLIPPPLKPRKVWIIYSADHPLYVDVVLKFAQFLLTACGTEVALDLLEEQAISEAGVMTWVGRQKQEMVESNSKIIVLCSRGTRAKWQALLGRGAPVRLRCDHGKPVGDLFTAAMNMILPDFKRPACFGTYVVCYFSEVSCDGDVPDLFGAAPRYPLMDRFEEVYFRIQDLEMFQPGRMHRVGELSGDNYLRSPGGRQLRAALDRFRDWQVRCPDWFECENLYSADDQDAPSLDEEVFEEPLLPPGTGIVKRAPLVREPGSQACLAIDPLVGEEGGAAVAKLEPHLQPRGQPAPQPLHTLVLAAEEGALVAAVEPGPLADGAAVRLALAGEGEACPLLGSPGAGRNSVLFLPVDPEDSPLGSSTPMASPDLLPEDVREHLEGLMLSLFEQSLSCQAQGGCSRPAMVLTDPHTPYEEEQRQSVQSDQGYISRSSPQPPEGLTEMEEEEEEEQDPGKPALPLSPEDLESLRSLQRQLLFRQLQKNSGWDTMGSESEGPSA
# Assay: Co-immunoprecipitation of Act1 and IL-17RA in transfected HeLa cells
# Assay type: cell-based, mouse Act1, human IL-17RA
# Details: peptides 200 μM, 24 hours
# Experimental: FIG. 4 provides data showing that a cell-permeable CC′ loop decoy peptide disrupts the interaction between Act1 and IL-17RA and inhibits IL-17R and IL-25R signaling. FIG. 4A provides sequences of Antennapedia homeodomain (Antp) (SEQ ID NO: 11)and decoy peptides (SEQ ID NOS 23-25 and 17, respectively, in order of appearance) with the Antp sequence underlined. FIG. 4B provides flow cytometry results based on experiments in which MEFs expressing IL-17RB were incubated for 2 or 24 hours with the indicated FITC-tagged peptides (200 μM) and were then analyzed by flow cytometry. […] The percentages of FITC-positive cells in the treated samples are shown. […] FIG. 4D provides Western blot results of experiments in which MEFs expressing IL-17RB were incubated with the indicated peptides (200 μM) for 24 hours after which they were treated with IL-17 or IL-25 and then analyzed by Western blotting with the indicated antibodies. […] The abundances of Cxcl1 and Il13 mRNAs were then measured by real-time RT-PCR. […]
# Decoy peptides are based on surface-exposed regions of the primary sequence of a protein to mimic a putative interaction interface. […] These decoy peptides were also tagged at their C-termini with fluorescein isothiocyanate (FITC) to enable their cell-penetrating efficiency to be evaluated by flow cytometric sanalysis. […]
sequence,measurement,value
DRQIKIWFQNRRMKWKKLDEDEHGLHTKY [CC′ loop decoy peptide],inhibition of the Act1-IL-17RA interaction (co-IP),more efficiently inhibited
